Experimental findings from paper PMC6795519 are described below.

The target of this assay is PIP3-dependent Rac exchanger 1 (P-Rex1), residues 38 to 1659 (human) (UniProt Q8TCU6).
Chain of UniProt Q8TCU6 (Q8TCU6 38-1659): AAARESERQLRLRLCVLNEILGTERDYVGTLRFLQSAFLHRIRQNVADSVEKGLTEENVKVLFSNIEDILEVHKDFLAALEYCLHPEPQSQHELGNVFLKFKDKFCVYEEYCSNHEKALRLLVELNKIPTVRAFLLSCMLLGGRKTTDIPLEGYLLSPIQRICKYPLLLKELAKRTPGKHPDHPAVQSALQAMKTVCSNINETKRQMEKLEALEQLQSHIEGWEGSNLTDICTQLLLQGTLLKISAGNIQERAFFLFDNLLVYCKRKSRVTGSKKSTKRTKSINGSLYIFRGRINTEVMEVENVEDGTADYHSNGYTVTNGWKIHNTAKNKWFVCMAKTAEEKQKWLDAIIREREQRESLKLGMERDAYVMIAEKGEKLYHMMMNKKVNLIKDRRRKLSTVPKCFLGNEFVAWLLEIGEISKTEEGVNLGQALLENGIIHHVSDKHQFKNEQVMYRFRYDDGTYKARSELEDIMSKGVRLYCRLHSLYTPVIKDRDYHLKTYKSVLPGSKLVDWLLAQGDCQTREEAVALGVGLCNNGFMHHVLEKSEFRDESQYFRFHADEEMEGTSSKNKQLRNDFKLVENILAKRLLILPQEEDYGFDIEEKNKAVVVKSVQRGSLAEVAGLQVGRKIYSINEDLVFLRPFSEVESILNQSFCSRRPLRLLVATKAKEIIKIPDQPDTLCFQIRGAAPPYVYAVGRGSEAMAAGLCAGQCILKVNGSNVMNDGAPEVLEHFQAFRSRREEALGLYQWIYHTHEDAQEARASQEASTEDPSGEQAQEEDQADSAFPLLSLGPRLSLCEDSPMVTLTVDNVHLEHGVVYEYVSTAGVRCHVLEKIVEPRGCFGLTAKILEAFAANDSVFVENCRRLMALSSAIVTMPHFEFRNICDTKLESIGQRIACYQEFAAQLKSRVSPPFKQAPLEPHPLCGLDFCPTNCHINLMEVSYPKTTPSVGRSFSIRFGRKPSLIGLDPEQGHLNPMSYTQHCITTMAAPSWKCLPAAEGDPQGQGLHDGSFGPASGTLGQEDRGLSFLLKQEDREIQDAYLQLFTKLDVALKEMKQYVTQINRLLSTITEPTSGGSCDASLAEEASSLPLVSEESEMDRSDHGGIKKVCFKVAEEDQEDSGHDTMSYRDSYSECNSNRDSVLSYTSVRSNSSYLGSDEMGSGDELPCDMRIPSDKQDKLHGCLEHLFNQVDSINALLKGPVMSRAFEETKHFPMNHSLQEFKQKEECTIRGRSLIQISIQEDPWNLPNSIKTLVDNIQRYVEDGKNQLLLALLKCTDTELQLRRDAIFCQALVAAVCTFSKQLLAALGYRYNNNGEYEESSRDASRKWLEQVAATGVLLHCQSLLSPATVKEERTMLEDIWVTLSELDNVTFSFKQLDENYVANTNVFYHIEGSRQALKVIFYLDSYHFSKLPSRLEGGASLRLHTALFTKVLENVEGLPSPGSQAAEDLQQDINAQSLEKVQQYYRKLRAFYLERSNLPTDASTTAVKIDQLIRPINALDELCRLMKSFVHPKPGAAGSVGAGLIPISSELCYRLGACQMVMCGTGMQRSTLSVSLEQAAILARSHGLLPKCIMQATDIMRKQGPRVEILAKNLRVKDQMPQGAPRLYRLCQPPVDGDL

“Geranylgeranylated human Gβ1γ2 with Gβ W332A (from UniProt P62873 1-340; P59768 1-71) (complex)” displayed a liposome-based GEF assay, Gβγ dose-response (0.5 μM PIP3): EC50 of activation of P-Rex1 against WT Gβγ; lower efficacy than WT of 10 fold.
